Data published in article PMC5024299.

Tested on: Pho4 (Saccharomyces cerevisiae)
Experiment: SELMAP (microfluidic SELEX-seq)
Details: last round; On-chip SELMAP: 71-bp dsDNA library (20 ul, 50 uM) flowed 20 min over immobilised TF, MITOMI trapping, DNase 200 U/mL, PBS wash; binding buffer, pH and …

Pho4 consensus 6-mer CACGTG in 12-mer library
binding signal (frequency ratio score): 220
